Literature values in article PMC11281341.

Target: HIV-1 capsid protein (CA) CA (Human immunodeficiency virus 1) (UniProt O93182)
Sequence (O93182 133-363): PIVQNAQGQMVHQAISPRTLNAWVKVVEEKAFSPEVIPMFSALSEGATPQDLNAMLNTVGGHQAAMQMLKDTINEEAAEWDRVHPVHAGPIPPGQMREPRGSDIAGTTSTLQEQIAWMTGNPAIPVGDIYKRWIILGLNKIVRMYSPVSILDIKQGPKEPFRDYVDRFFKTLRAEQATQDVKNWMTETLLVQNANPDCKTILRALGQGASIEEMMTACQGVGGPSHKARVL

Chain of TRIM5alpha SPRY (Q0PF16 283-497): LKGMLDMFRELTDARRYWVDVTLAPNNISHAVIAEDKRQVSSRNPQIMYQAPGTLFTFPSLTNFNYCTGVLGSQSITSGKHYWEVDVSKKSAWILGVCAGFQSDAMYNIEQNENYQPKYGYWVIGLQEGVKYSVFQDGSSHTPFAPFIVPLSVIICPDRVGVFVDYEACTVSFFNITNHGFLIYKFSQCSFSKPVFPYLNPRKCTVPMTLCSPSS

**Q.** Which Kd does the source give for TRIM5alpha SPRY (from UniProt Q0PF16) here?
**A.** The Kd was greater than 1000 µM.
